Test results reported in PMC8989322 (2022).

B1: mAb1512 (antibody, V domains shown)
VH: KVQLVQSGGGVVQPGRSQRLSCAASGLTLSEYAMHWVRQAPGKGLEWVAVILSDGTKKEYADSVKGRFTISRDNSKNTLYLQMNSLRAEDTAVYYCATDDNILGHCRSKSCQRNYYHGMDVWGQGTTVSVSS
VL: DIVMTQSPLSLPVTPGEPASISCRSSQSLLHSNGKNYLDWYLQKPGQSPQLLIYLGSDRASGVPDRFSGSGSGTDFTLSISRVEAEDVGVYYCMQALQTPFTFGPGTKVDIK
B2: mAb236 (antibody, V domains shown)
VH: EVQLVESGGGLVQPGGSLRLSCVASGFNFTTYSMNWVRQAPGKGLEWVSYISSHSNLIYYATSVKGRFTISRDNAKNSLYLQMNSLRAEDTALYYCARGGSLHPSAGADWIDPWGQGTLVTVSS
VL: SYELTQAPSVSVSPGQTATITCSGDKLGDKFTSWYQQKPGQSPVLVIYQDSKRPSGIPERFSASNSGNTATLTISGTRAMDEADYYCQAWDSNTYVFGTGTRVAVL
B3: mAb352 (antibody, V domains shown)
VH: EVQLVESGGGLVKPGGSLRLSCAASGFSFSEYRMNWVRQAPGKGLEWVSFISSSGTYIDYADSVKGRFTISRDNVNNSLYLQMNNLRAGDTAVYYCARGMGIAVRRFDYWGQGTLVSVSS
VL: SYVLTQPPSVSVAPGQTAKITCGGNNIGSESVHWYQQKPGQAPVLVVYDDAVRPSGIPERFSGSNSRNTATLTISRVEAGDEAAYYCQVWDSSTVASFGGGTKLTVL
B4: mAb234 (antibody, V domains shown)
VH: EVQLVESGGGLVKPGGSLRLSCAASGFNFSTHIMNWVRQAPGKGLEWVSSISSSGTYIYYADSMKGRFTISRDNPKNSLYLQMNSLRAEDTAVYYCARARGFIQFHYYMDVWGKGTTVAVSS
VL: SYVLTQPPSVSVAPGKTARITCGGNNIGSKSVHWHQQRPGQAPVLVVYDDKIRPSGIPERFSGSNSGNTATLIISRVEAGDEADYYCQVWHSSSDPVVFGGGTKLTVL
B5: mAb1488 (antibody, V domains shown)
VH: EVHLVESGGGLVKPGGSLRLSCAASGFTFSSYTMNWVRQAPGKGLEWVSSISSSSTYIYYADSVRGRFTISRDNAKNSLYLQMNSLRAEDSAVYYCARRAGGFDAYYFDYWGQGTLVTVSS
VL: not shown

Biological target: reference 3D7 ctCSP peptide (P. falciparum 3D7)
Assay: SPR

Row | Binder | Kd [nM]
1 | B1 | 0.0291
2 | B2 | 0.00278
3 | B3 | 0.0116
4 | B4 | 0.00377
5 | B5 | 0.36
